{"source": "patent US20080311122A1", "about": "“Antagonists of Hmgb1 and/or Rage and Methods of Use Thereof” (Medimmune, LLC, priority 2005, published 2008)", "molecules": {"B1": {"name": "G2: human anti-HMG1 IgG1 from Fab phage display library; VL/VH aa SEQ ID NO: 30/32 (antibody, listed as Homo sapiens, V domains shown)", "VH": "EVQLLESGGGLVQPGGSLRLSCAASGFTFSWYKMQWVRQAPGKGLEWVSGISPSGGSTAYADSVKGRFTISRDNSKNTLYLQMNSLRAEDTAVYYCAKMGLFNTGNSYVDYWGQGTLVTVSS", "VL": "AQSELTQPPSVSEAPGQRVTISCSGSTSNIGNNAVIWYQQLPGKAPKLLIYYDDLLPSGVSDRFSGSKSGTSGSLAISGLQSEDEADYYCASWDDNLNGPLFGGGTKLTVL"}, "B2": {"name": "S17: human anti-HMG1 antibody; VL/VH aa SEQ ID NO: 70/72 (antibody, listed as Homo sapiens, V domains shown)", "VH": "EVQLLESGGGLVQPGGSLRLSCAASGFTFSYYDMHWVRQAPGKGLEWVSRISPSGGYTWYADSVKGRFTISRDNSKNTLYLQMNSLRAEDTAVYYCTRGRYTSGWHEYFDPWGQGTLVTVSS", "VL": "AQDIQMTQSPSSLSASVGDRVTITCRASQSIGTYLNWYQQKPGTAPKVLIYAASSLQSGVPSRFSGSGSGTDFTLTISSLQPEDFSTYYCQQSYNTPRTFGQGTKLEIK"}, "B3": {"name": "G9: human anti-HMG1 antibody; VL/VH aa SEQ ID NO: 34/36 (antibody, listed as Homo sapiens, V domains shown)", "VH": "EVQLLESGGGLVQPGGSLRLSCAASGFTFSSYDMFWVRQAPGKGLEWVSRISPSGGYTYYADSVKGRFTISRDNSKNTLYLQMNSLRAEDTAVYYCARLRYFDSRGYAFDIWGQGTMVTVSS", "VL": "AQDIQMTQSPGTLSLSPGERATLSCRASQSVRSSYLAWYQQKPGQAPRLLIYGASTRATGIPDRFSGSGSGTDFTLTISRLEPEDFAVYYCQQYGTSRWTFGQGTKVEIK"}, "B4": {"name": "E11: human anti-HMG1 antibody, recognizes HMG1 A-Box; VL/VH aa SEQ ID NO: 24/26 (antibody, listed as Homo sapiens, V domains shown)", "VH": "EVQLLESGGGLVQPGGSLRLSCAASGFTFSRYQMNWVRQAPGKGLEWVSSISPSGGHTHYADSVKGRFTISRDNSKNTLYLQMNSLRAEDTAVYYCAKDGRQGKISTVDHWGQGTLVTVSS", "VL": "AQDIQMTQSPGTLSLSPGERATLSCRASQSVRSNFLAWYQQKPGQAPRLLIYGASRRASGIPDRFSGSGFGADFTLSISRLEPEDFAVYYCQQYGSSPNTFGQGSRVEIK"}, "B5": {"name": "G20: human anti-HMG1 antibody; VL/VH aa SEQ ID NO: 46/48 (antibody, listed as Homo sapiens, V domains shown)", "VH": "EVQLLESGGGLVQPGGSLRLSCAASGFTFSWYDMFWVRQAPGKGLEWVSWISPSGGYTKYADSVKGRFTISRDNSKNTLYLQMNSLRAEDTAMYYCARSGLDYYDSSGYLDAFDIWGQGTMVTVSS", "VL": "AQDIQMTQSPSSVSASVGDRVTITCRASQDVSIWLAWYQQKPGKAPKLLIFGASRLQSGVPSRFSGSRSGADFTLTIDSVQPEDFASYYCQQADSFPLTFGGGTKVEIK"}, "B6": {"name": "S16: human anti-HMG1 antibody, ATCC PTA-6259; VL/VH aa SEQ ID NO: 13/15 (antibody, listed as Homo sapiens, V domains shown)", "VH": "EVQLLESGGGLVQPGGSLRLSCAASGFTFSWYSMLWVRQAPGKGLEWVSYISPSGGFTNYADSVKGRFTISRDNSKNTLYLQMNSLRAEDTAVYYCARWDYNSGWYYDHWGQGTLVTVSS", "VL": "AQDIQMTQSPDTLSLSPGERATLSCRASQSVNSRNLAWYQQKPGQAPRLLIYGASTRATGIPDRFSGSVSGTEFTLTISSLQPDDFATYYCQQYNSYFTFGQGTKLEIK"}}, "key": {"[1]": {"test_system": "HMG1 stimulated cytokine gene expression in mouse macrophages", "test": "Taqman analysis of mouse macrophages (mMØ) stimulated with HMG1", "type": "cell-based", "conditions": "rHMG1", "experimental": "Taqman Analysis of Mouse Macrophages (mMØ) Stimulated with HMG1: Mouse bone marrow was harvested by rinsing the femurs of normal C57BL/6 mice. The isolated bone marrow cells were then cultured in Dulbecco's modified Eagle's medium (DMEM) supplemented with 10% fetal bovine serum (FBS) and 50 ng/ml M-CSF for 24 h, nonadherent cells were collected and grown for 6 days in complete DMEM supplemented with 10% FBS and 50 ng/ml M-CSF in T-75 flasks (1×10^7 cells/15 ml/flask). On day 6, adherent cells were harvested and reseeded with 5 ng/ml MCSF in α-MEM containing 10% FBS in 96-well plates (1×10^5 cells/200 μl/well) overnight.\nThe culture medium was replaced with α-MEM and incubated for 2 hours before stimulation to starve cells. HMGB1 (recombinant CBP-HMGB1 fusion protein generated from E. coli at 10 μg/ml), mouse-RAGE-Fc or human-RAGE-Fc fusion protein were pre-mixed with various blocking reagents at 100 μg/ml in α-MEM for 20 min at RT, then 100 μl of the mixtures was added to the cells and incubated at 37° C. for 2 hours. The supernatant was then removed, and the RNA was extracted using Ambion's MagMAX™-96 Total RNA Isolation Kit. All of the recovered RNA were used in a reverse transcriptase (RT) reaction with SuperScript™ III and oligo(dT) primer (Invitrogen) for synthesis of cDNA. 1 μl or 2 μl of the resulting cDNA was used for real time quantitative PCR analysis (TaqMan) using ABI Prism 7700 or 7000."}, "[2]": {"test_system": "native activated HMG1 stimulated IL-6 release from human PBMCs", "test": "Inhibition of cytokine release from PBMCs, native activated HMG1", "type": "cell-based", "experimental": "Inhibition of Cytokine Release: Human peripheral blood mononuclear cells (PBMCs) were isolated from the peripheral blood of healthy volunteers by a density gradient centrifugation. Freshly drawn heparinized whole blood was mixed with two volume of PBS. The diluted blood was gently layered on the surface of Histopaque-1077 (Sigma-Aldrich) and centrifuged at 400×g, at RT for 30 minute. PBMCs were collected from the interface between the plasma and the density gradient solution. After washing in PBS 3×, the purified PBMCs were resuspended in RPMI-1640 medium (GIBCO BRL) containing 100 U/ml penicillin, 100 μg/ml streptomycin and […] β-mercaptoethanol. 1×10^5 of cells was added in each well of 96-well cell culture plates.\nThe PBMCs were incubated for two hours at 37° C. with 5% CO2. recombinant HMG1, at 4 μg/ml, or native activated HMG1 from 2.4×10^5 LPS stimulated THP-1 cells, and different concentrations of human anti-HMGB-1 monoclonal antibodies, a RAGE-FC fusion protein or an HMG1 A-box-Fc fusion protein were added into each well. The culture media was supplemented with 8 U/ml (1 μg/ml) Polymyxin B sulphate (Sigma-Aldrich) to inhibit potential endotoxin. PBMCs from the same donor without stimulation with HMG1 were used as controls. The cell-free culture media were harvested after 14 hours and stored at −20° C.\nThe culture media were analyzed for inflammatory cytokines using Beadlyte human multi-cytokine flex kit from Upstate by Luminex 100 (Luminex Corp.). Proinflammatory cytokines TNF-α, IL-6, IL-1β and IL-12 (p40) were measured for cells stimulated with recombinant HMG1. In addition, TNF-α, IL-6, IL-1β and IL-8 were measured for cells stimulated with native activated HMG1.\nCytokine release data is presented as mean of triplicates±standard deviations. IC50 for anti-HMGB1 monoclonal antibody is defined as the concentration of antibody required yielding one-half maximal inhibition of the cytokine release from PBMCs stimulated by HMGB1. It was calculated by PRISM program."}, "[3]": {"test_system": "HMG1 induced TLR4 activation", "test": "TLR4 activation assay (NF-κB luciferase reporter, 293 cells)", "type": "cell-based, human", "experimental": "TLR4 Activation Assay: HuTLR4 and CD14 stably expressed 293 cells (Invitrogen) were seeded in a 96 well plate at 2×10^4/well in 100 μl of DMEM with 10% FCS overnight. Cells were then transfected with NF-κB/Luc (Stratagene) luciferase reporter construct as indicated by the kit for 24 hr. A mixture of HMGB1 and anti-HMGB1 was added to cells at 100 μl/well overnight. The luciferase activity was then measured to reflect TLR4 activation (Promega)."}, "[4]": {"test_system": "HMG1 enhancement of PAMP stimulation", "test": "Inhibition of the enhancement of PAMP stimulation by HMG1 (Table 1 summary)", "type": "cell-based", "conditions": "PAMP used and cytokine assayed are indicated", "experimental": "(§1) Inhibition of HMG1 Mediated Enhancement of TLR Signaling: Human PBMCs were treated with Tx-HMGB1+LPS (as described above) in combination with either the Anti-HMG1 antibody E11, S16 or G4, anti-TLR4 antibody, or isotype control antibodies (R3, IgG2a) and incubated overnight at 37° C., 5% CO2 in the presence of 8 U/mL Polymyxin B. The supernatants were assayed for cytokine levels (FIG. 22, right panel).\nInhibition of HMG1 Mediated Enhancement of TLR Signaling: Freshly isolated bone marrow cells were stimulated with TLR9 ligand CpG2216 (0.3 μM) and thymus HMGB1 (10 μg/mL) in the presence of different concentration of the anti-HMGB1 mAb E11 or control human IgG for 24 hr and IFN-a in the supernatant was measured by ELISA. CpG2216, HMGB1 and nonstimulatory DNA were used alone or in combination as controls for the assay."}, "[5]": {"test_system": "Tx-HMGB1+LPS stimulated IL-6 release (TLR4 signaling)", "test": "Inhibition of HMG1 mediated enhancement of TLR signaling, Tx-HMGB1+LPS in human PBMCs", "type": "cell-based", "experimental": "Cytokine Release Assays: Human PBMCs were treated with rHMG1 in the presence or absence of Polymyxin B (FIG. 20). Human PBMCs were treated with rHMG1 and Tx-HMGB1 at concentrations up to 4 μg/ml (FIG. 21). ˜16 μg/mL (512 nM) Tx-HMGB1 was incubated with 61.5 EU/mL (6.15 ng/mL; approx. 0.615 nM) LPS overnight at 4° C. The sample was diluted as indicated and added to human PBMCs (FIG. 22). In all assays the cells were incubated overnight at 37° C., 5% CO2 and the supernatants were assayed for cytokine levels by Bioplex assay. When present Polymyxin B was used at 8 U/mL.\nas §1"}}, "note": "Entries after “also recorded” stand apart in the source; their conditions may differ.", "data": [{"molecule": "B1", "values": [{"measurement": "inhibition of HMG1-induced IL-1β gene expression", "setting": "[1]", "value": "significantly reduce HMG1-induced IL-1b gene expression; also recorded: robustly inhibited"}, {"measurement": "inhibition of HMG1-induced TNF-a gene expression", "setting": "[1]", "value": "significantly reduce HMG1-induced TNF-α gene expression; also recorded: robustly inhibited"}]}, {"molecule": "B2", "values": [{"measurement": "block of IL-6 release induced by native activated HMG1", "setting": "[2]", "value": "able to block IL-6 released induced by native activated HMG1"}]}, {"molecule": "B3", "values": [{"measurement": "block of IL-6 release induced by native activated HMG1", "setting": "[2]", "value": "less effective"}]}, {"molecule": "B4", "values": [{"measurement": "inhibition of HMG1-induced IL-1β gene expression", "setting": "[1]", "value": "significantly reduce HMG1-induced IL-1b gene expression; also recorded: robustly inhibited"}, {"measurement": "block of HMG1 induced TLR4 activation", "setting": "[3]", "value": "able to inhibit HMG1 activation of TLR4; also recorded: significant ability to block HMG1 induced TLR4 activation"}, {"measurement": "block of IL-6 release induced by native activated HMG1", "setting": "[2]", "value": "able to block IL-6 released induced by native activated HMG1"}, {"measurement": "Inhibition of Synergy (PAMP/Cytokine)", "setting": "[4]", "value": "CpG/IFN-a, LPS/IL-6"}, {"measurement": "inhibition of Tx-HMGB1+LPS induced IL-6 release", "setting": "[5]", "value": "reduction in IL-6 release to near background levels; also recorded: block the Tx-HMG1 mediated enhancement of TLR4 signaling; also recorded: can be inhibited"}]}, {"molecule": "B5", "values": [{"measurement": "block of HMG1 induced TLR4 activation", "setting": "[3]", "value": "able to inhibit HMG1 activation of TLR4"}]}, {"molecule": "B6", "values": [{"measurement": "block of IL-6 release induced by native activated HMG1", "setting": "[2]", "value": "able to block IL-6 released induced by native activated HMG1"}, {"measurement": "Inhibition of Synergy (PAMP/Cytokine)", "setting": "[4]", "value": "LPS/IL-6"}, {"measurement": "inhibition of Tx-HMGB1+LPS induced IL-6 release", "setting": "[5]", "value": "reduction in IL-6 release to near background levels; also recorded: block the Tx-HMG1 mediated enhancement of TLR4 signaling; also recorded: can be inhibited"}]}]}
